Assay results from US20070021348.
Numbering of substitutions follows the chain as printed. Numbers in names are those of the source.

Target: human APP isoform 695 (in SH-SY5Y APP695 cells), P05067
Sequence (P05067 whole entry, looked up, canonical isoform): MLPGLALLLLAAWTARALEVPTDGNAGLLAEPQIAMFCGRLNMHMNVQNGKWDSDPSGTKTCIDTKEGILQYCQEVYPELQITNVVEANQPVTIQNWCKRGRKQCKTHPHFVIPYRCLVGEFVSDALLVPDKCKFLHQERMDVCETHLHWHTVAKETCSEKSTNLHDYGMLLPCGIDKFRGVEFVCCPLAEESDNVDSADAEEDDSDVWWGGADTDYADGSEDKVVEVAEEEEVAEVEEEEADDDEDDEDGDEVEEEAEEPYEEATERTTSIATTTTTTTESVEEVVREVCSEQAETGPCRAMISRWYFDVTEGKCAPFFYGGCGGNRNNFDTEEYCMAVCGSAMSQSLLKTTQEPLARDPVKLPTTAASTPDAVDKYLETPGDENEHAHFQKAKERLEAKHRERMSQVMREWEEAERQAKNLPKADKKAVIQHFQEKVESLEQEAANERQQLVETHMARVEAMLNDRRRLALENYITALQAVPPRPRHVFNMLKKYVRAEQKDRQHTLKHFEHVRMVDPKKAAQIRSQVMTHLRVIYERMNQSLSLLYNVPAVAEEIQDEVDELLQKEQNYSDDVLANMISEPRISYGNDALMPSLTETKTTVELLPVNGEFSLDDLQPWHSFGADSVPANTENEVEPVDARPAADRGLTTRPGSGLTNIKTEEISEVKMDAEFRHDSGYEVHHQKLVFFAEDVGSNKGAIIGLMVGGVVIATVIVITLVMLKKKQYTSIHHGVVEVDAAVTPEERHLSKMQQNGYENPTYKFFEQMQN

B1: Asp 2 (transiently expressed from pcDNA3.1aMycHis) (protein)
chain: ETDEEPEEPGRRGSFVEMVDNLRGKSGQGYYVEMTVGSPPQTLNILVDTGSSNFAVGAAPHPFLHRYYQRQLSSTYRDLRKGVYVPYTQGKWEGELGTDLVSIPHGPNVTVRANIAAITESDKFFINGSNWEGILGLAYAEIARPDDSLEPFFDSLVKQTHVPNLFSLQLCGAGFPLNQSEVLASVGGSMIIGGIDHSLYTGSLWYTPIRREWYYEVIIVRVEINGQDLKMDCKEYNYDKSIVDSGTTNLRLPKKVFEAAVKSIKAASSTEKFPDGFWLGEQLVCWQAGTTPWNIFPVISLYLMGEVTNQSFRITILPQQYLRPVEDVATSQDDCYKFAISQSSTGTVMGAVIMEGFYVVFDRARKRIGFAVSACHVHDEFRTAAVEGPFVTLDMEDCGYNIPQTDESTLMTIAYVMAAICALFMLPLCLMVCQWRCLRCLRQQHDDFADDISLLK
sAPPβ (110 kDa) in media, Western blot: An increase in sAPPβ (110 kDa) was observed in the media from Asp 2 transfected cells compared to empty vector pcDNA3.1MycHis transfected control cells

B2: Asp 2 active site mutant D93N (protein)
chain: B1 chain with D48N
sAPPβ in media, Western blot: There was no increase in sAPPβ secreted from cells transfected with either of the Asp-Asn mutants D93N or D289N

B3: Asp 2 active site mutant D289N (protein)
chain: B1 chain with D244N
sAPPβ in media, Western blot: There was no increase in sAPPβ secreted from cells transfected with either of the Asp-Asn mutants D93N or D289N
